Laboratory results reported in the DeepSol protein solubility set.

Assay: soluble on expression in E. coli; label from the status in PepcDB or PDB records

Q: For “AMLAELTHRCPLACPYCSNPLALHGKARELDTQTWARAFDEAAALGVLQLHLSGGEPASRPDLVELTRAAHEAGLYTNLITSGIGLTPARLDALEAVGLDHIQLSLQGTTPDLADRIGGYKGGFARKMAVAAEIKARGIPLTLNAVMHRHNLDDLERTIELAIELGARRLEVACVQFHGWATRNRAALLPSRAQTEAAKRIVAEAEARLRGTLAFDFVPPDYYADYPKACMGGWGSAGLNIAPDGTVLPCHAA”, which “soluble on expression in E. coli” value is on record?
A: Its value is “not soluble”.

Q: For “MGSDKIHHHHHHMVNEQRVLDTFLELVQIDSESKEEAQICAHLKETFTALGCDVFEDDASSKTEHKGNNLIITLPATKDGVDKIYFTSHMDTVFPGQGIKPIIEDGYVKTDGTTILGADDKTGLASLIELVHVLNETNQPHGKIQFVITVGEESGLVGAMVLDPSKIDADYGFALDSDGKVGDIITAAPTQAKVNAKIYGKTAHAGVAPEKGISAITIAAKAIAKMPLGRIDEETTANIGRFSGGGPSTNIVCDYVEIFAEARSLVAPKMEAQTAKMKAAFEEVAAEFGGRAEVEVKVMYPGFKFEDGDQVVEVAKAAITQLGRTPRLLHSGGGSDANVIAGFGIPTVNLAVGYEDIHTTNEKMPIEELVKTAELCVTLVDYITNK”, which “soluble on expression in E. coli” value is on record?
A: Its value is “not soluble”.

Q: With “MAHHHHHHMQAAAPGQTLSSALRFWADVSYGDAPPAALIDYPPLGFEEDSSRLTVGALQASRDAAAADSRRQLGLKTQRASEDVDGSAHPALLLGVKEESSTLAVTREELEGEEGPAWLQPPLLLQLDDGLEDRQFAAATTTGRTAPVPHLRYDGAGLLAVMHVHSSGIAYVGYPRASDTVSSAEPTDGLVRLPDNVPPADPLAVAAPTPAPICSLPMSSSTGFVRGLLGLS” as the sequence, how does the “soluble on expression in E. coli” value read?
A: Its value is “not soluble”.

Q: For “MRHRGGRGFRGWWLASTILLLVAEKPSHGYELAERLAEFGIEIPGIGHMGNIYRVLADLEESGFLSTEWDTTVSPPRKIYRITPQGKLYLREILRSLEDMKRRIETLEERIKRVLQEE”, which “soluble on expression in E. coli” value is on record?
A: The value was “soluble”.

Q: With “MTQAIKRVGVTDVVLRDAHQSLFATRLRIDDMLPIAQQLDQIGYWSLECWGGATFDSCIRFLGEDPWQRLRLLKQAMPNTPLQMLLRGQNLLGYRHYADDVVDTFVERAVKNGMDVFRVFDAMNDVRNMQQALQAVKKMGAHAQGTLCYTTSPVHNLQTWVDVAQQLAELGVDSIALKDMAGILTPYAAEELVSTLKKQVDVELHLHCHSTAGLADMTLLKAIEAGVDRVDTAISSMSGTYGHPATESLVATLQGTGYDTGLDIAKLEQIAAYFRDVRKKYHAFEGMMKGSDARILVAQVPGGMLTNMESQLKQQNALDKLDLVLEEIPRVREELGFLPLVTPTSQIVGTQAVINVVLGERYKTITKETSGVLKGEYGKTPAPVNTELQARVLAGAEAITCRPADLIAAEMPTLQDRVLQQAKEQHITLAENAIDDVLTIALFDQVGWKFLANRHNLEHHHHHH” as the sequence, how does the “soluble on expression in E. coli” value read?
A: The value was “soluble”.

Q: For “MITRDFFLFLSKSGFLNKMARNWGSRVAAGKIIGGNDFNSSIPTIRQLNSQGLSVTVDHLGEFVNSAEVARERTEECIQTIATIADQELNSHVSLKMTSLGLDIDMDLVYENMTKILQTAEKHKIMVTIDMEDEVRCQKTLDIFKDFRKKYEHVSTVLQAYLYRTEKDIDDLDSLNPFLRLVKGAYKESEKVAFPEKSDVDENYKKIIRKQLLNGHYTAIATHDDKMIDFTKQLAKEHGIANDKFEFQMLYGMRSQTQLSLVKEGYNMRVYLPYGEDWYGYFMRRLAERPSNIAFAFKGMTKKLEHHHHHH”, which “soluble on expression in E. coli” value is on record?
A: The value was “soluble”.

Q: With “MLQKTKGIVLHTLKYNDTSIIVDMYTELSGRTSFLVPVPRSRKAAVKSVLFQPLSFIEFEADFRPNATLYRVKEAKSFYPFTSIPYDPYKSSMALFLAEFLYRAVREEAENRPLFAYLQHSVIWLDECREGFANFHLVFLMRLSRFLGLYPNLEDYHTGDYFDLLNACFTSTRPQLHSSYINPEEAGRLRQLMRMNYETMHLFGMSRAERTRCLTIMNDYYRLHLPDFPALKSLDVLKELFD” as the sequence, how does the “soluble on expression in E. coli” value read?
A: Its value is “not soluble”.

Q: Which “soluble on expression in E. coli” value does the source give for “MSAFTPASEVLLRHSDDFEQSRILFAGDLQDDLPARLDTAASRAHTQQFQHWQVLSRQMGDNARFSLVATADDVADCDTLIYYWPKNKPEAQFQLMNLLSLLPVGTDIFVVGENRSGVRSAEQMLADYAPLNKVDSARRCGLYFGRLEKQPVFDADKFWGEYSVDGLTVKTLPGVFSRDGLDVGSQLLLSTLTPHTKGKVLDVGCGAGVLSVAFARHSPKIRLTLCDVSAPAVEASRATLAANGVEGEVFASNVFSEVKGRFDMIISNPPFHDGMQTSLDAAQTLIRGAVRHLNSGGELRIVANAFLPYPDVLDETFGFHEVIAQTGRFKVYRAIMTRQAKKG” here?
A: Its value is “not soluble”.

Q: Which “soluble on expression in E. coli” value does the source give for “GERQVYRKIRDRASYAFALISVAAVVRMEEGRIATARLAFGGLAHKPWRDPEVEACLEGETPSDDLFDRAADRLLQSARGQGENDFKIPLTRRALTAALREATG” here?
A: Its value is “not soluble”.

Q: With “EAGMAAITAATAGNMQSQINYTRSNEKEADRFGIATLAKAGFDVQAMPRFFGRLADEYRYASKPPPMLLTHPLPEDRVADSRQRAQAYPPMRIAPSIDYHLARARIVARYAGIDGQAALGWFERTQKKASADIMPSFDYGRALVHLDNKRLSQAEPILKKLLAQDPGNPFYLDAMTDLYIEKKQPQKAVELLNSALKRNPQNKVLTINYANALLEANQNDQAVRTLQRYTHDNPEDSNGWQLLSKGYHALGRSDEELAARAEILALRANWNKAIQYYSEASKMAELGSLEQARYDARIDQLMIQRDRFMALQ” as the sequence, how does the “soluble on expression in E. coli” value read?
A: Its value is “not soluble”.

Q: Which “soluble on expression in E. coli” value does the source give for “MLSRRGKMKRIKVLRNGPYLVEGSVPLYEEVIVTDEEGHTREFVERRQFPLKERYVLCRCGESGNKPYCDGTHIRTGFDGTETASLEPYIERARVFRAGDLELTDVPELCDHSRFCLRAGGIRELLRKGDRESIQIAIEEAMICPSGRLVLWDRKTGKPYERDYEKSIVVIHDKQKRCEGPLWVRGGIPIESADGREYEVRNRVTLCRCGLSENKPFCDGSHWMTAEEKLEFKRKWGIELEHHHHHH” here?
A: The value was “not soluble”.

Q: For “MPPCPPQQNRNRLSQLPVGELGEMELTWQEIMSITELQGLNVPSETSFEPQAPTPYPGPLPPPTYCPCSIHPDAGFSLPPPSYELPASTPHVPELPYSYGNVAIPVSKPLTLSGLLNEPLPDHLALLDIGLPVGQPKPQEDPESDSGLSLNYSDAESLELEGMEAGRRRSEYADMYPVEYPYSLMPNSLAHPNYTLPPTETPLALESSSGPVRAKPAVRGEAGSRDERRALAMKIPFPTDKIVNLPVDDFNELLAQYPLTESQLALVRDIRRRGKNKVAAQNCRKRKLETIVQLERELERLSSERERLLRARGEADRTLEVMRQQLAELYHDIFQHLRDESGNSYSPEEYVLQQAADGAIFLVPRGTKMEATD”, which “soluble on expression in E. coli” value is on record?
A: Its value is “soluble”.

Q: With “INDPAKSAAPYHDEFPLFRSANMASPDKLSTGIGFHSFRIPAVVRTTTGRILAFAEGRRHTNQDFGDINLVYKRTKTTANNGASPSDWEPLREVVGSGAGTWGNPTPVVDDDNTIYLFLSWNGATYSQNGKDVLPDGTVTKKIDSTWEGRRHLYLTESRDDGNTWSKPVDLTKELTPDGWAWDAVGPGNGIRLTTGELVIPAMGRNIIGRGAPGNRTWSVQRLSGAGAEGTIVQTPDGKLYRNDRPSQKGYRMVARGTLEGFGAFAPDAGLPDPACQGSVLRYNSDAPARTIFLNSASGTSRRAMRVRISYDADAKKFNYGRKLEDAKVSGAGHEGGYSSMTKTGDYKIGALVESDFFNDGTGKNSYRAIIWRRFNLSWILNGPNN” as the sequence, how does the “soluble on expression in E. coli” value read?
A: Its value is “soluble”.

Q: Which “soluble on expression in E. coli” value does the source give for “MPSSRGVSLSISLAEAEVAPGGMLRGEVKVKVDSSHKNGIVYEAIRLVFLAVEKSCVWDDQGEFDELLNKYTSSRVYLDRHVTLTGFKTQSEDAETTAQVREEMLFLQHCATPYAAVAPTKPKKDAYRHYTREELLHGAIQMAATTKYTTGGVVAPDTNDSTNICMGSQKPVQAGDGPRSAAAAPRGGATEVEFPVLMPGTHRFPFLFRLPPWLPPSFYYSFVGAKGQLQYSASATMLFPGNGAGSWWFKICKDTSGAMRDMGKTFNRAAGSGAPSGKRARKRPGRDESGEGVIDLDDDEVGERMNRRLTSMPVYGPSDLTTAIHFDVLSVMPRRQLVAEYYQIDTHNLHQRPTNAPREAENAVSSSSNRNGAKKLQRRVDKSNDVGDVKPSGVSTGLLEHHEDTHLALSALYQTFRCGWLGNMCCLQPQNAIEAEVLVVGARTVLLADDVGALQALGVRPPITSDAPQLGGPALHAPDIVPSPDMAVAAPNTPWPVGGITLRVRVRNYCPTHTVECVRVELKVMLEIFKSLKTPHTFPGISYSSFDYTIPIPPGNQALFDVRLGLAPRFRRHETDSESLLPPPGVRTANMTSNTFLQVSFPGMYTYVEEEEEAKGVVIMAETVNLNDEVLELPVRYS” here?
A: The value was “not soluble”.

Q: For “MAGDPMFKLKINNFQLGFKLVQWPVTNHLLKHFYVFPINNKGGLAIKRIISLALFKKRLNKDKINNCHVWEEELPDGSYDMGFNGNFNHMEKRKSGYVTQKQFSEFKDANNQRLIKIETTLAIQGEQINKLTQTVEKQGEQINQLVQVVLLQGASKLENFKWSKKHKDKSLMPAWIVWKIFWWKVLEHHHHHH”, which “soluble on expression in E. coli” value is on record?
A: Its value is “not soluble”.

Q: For “RNEHTGELRLGASTTIAQYVLPPLLARFIEKFPQVSLSLFSGNSSEVEKALQEHRIDLALVEGNTRQPNLKYTPFLQDELVAIVHTHSKWMDYDEITLDELKEVPLVLRERGSGTLDVLITALHKHNIKLSDLTIRMHLGSTESIK”, which “soluble on expression in E. coli” value is on record?
A: Its value is “not soluble”.

Q: For “TEELHKIEDIIRIFNDCFSQEYNTRLAKGGDYPIYLPAYRAENNTPSDRPYHVILFAHGYYSSALHEIAHWLVAGTARRQLEDFGYWYEPDGRSAEQQREFETVEVKPQAIEWILATAADFRYFASADNLSGNAGDNSAFKQAVYQQVKIYANRGYLPKRAEKLRQALAKFYGTTDQINLANFEIT”, which “soluble on expression in E. coli” value is on record?
A: The value was “not soluble”.

Q: Which “soluble on expression in E. coli” value does the source give for “MGSDKIHHHHHHMKVLVTGATGFIGRQVVHRLREAGAELRLASRHPERLGPGQDAMRMPDVDAPTAAFLALARGVTDVVHCAGLNNDEGNATEADFRAANAELSARLAQAAAEQASGRFIQLSSIRAVIGARVSATIDEDTIPDPQCAYGRSKREAEIRVLDAYASHGRSDATVLRLPPVYGTGMQGNLATLMRMADTGLPLPTGALTGTRSLLSAQSTAGAIWHLLSLSGRLRPIHVASDVPPVSIADIVDAFRDGFGRPTRLMAVPAGPLRIAAILLGKRTSWDSLTASQICDPSLLVSEGWLPETGTLERLAEIARLGDAQSPPLR” here?
A: Its value is “not soluble”.

Q: For “MVQHSDEKGGAMTTLAIDIGGTKLAAALIGADGQIRDRRELPTPASQTPEALRDALSALVSPLQAHAQRVAIASTGIIRDGSLLALNPHNLGGLLHFPLVKTLGQLTDLPTIAINDAQAAAWAEYQALEGDITDMVFITVSTGVGGGVVSGGKLLTGPGGLAGHIGHTLADPHGPVCGCGRTGCVEAIASGRGIAAAAQGELAGADAKTIFMRAGQGDEQAQQLIHRSAHVLARLIADIKATTDCQCVVVGGSVGLAEGYLALVETYLAQEPAAFHVDLLAAHYRHDAGLLGAALLAQGEKL”, which “soluble on expression in E. coli” value is on record?
A: Its value is “soluble”.

Q: With “MQNDNHSTAQPEKDVARLTEEVREAIAHGGDIENAIRNLTLKAMHSNGLDIESLKQIATAVMKGVQEGAQQKMTHAAEQSHAAQSQITQAVVGLDTAFAQLAGASKLALEEAASKAKQFSDSELTKAQADLKDLESVFLDTLKHTATAAQGLIAETLRDMLSHAQHNGTAVGMQLKDTLAVFAHQMASTGRAQFEAGVKLTQTTADLLYKISTGVLSGITSQTNRDDK” as the sequence, how does the “soluble on expression in E. coli” value read?
A: Its value is “not soluble”.
